Assays:
HeLa Kyoto [1] = assay: solubility in G1/S (NP-40 vs SDS abundance) (log2 ratio); higher = more soluble; conditions: cell cycle stage: G1/S
HeLa Kyoto [2] = assay: melting temperature (median over replicates), in situ; higher = more thermally stable
HeLa Kyoto [3] = assay: solubility change mitosis vs G1/S (difference of NP-40 vs SDS log2 ratios) (log2 ratio difference); higher = more soluble in mitosis
HeLa Kyoto [4] = assay: thermal stability score vs G1/S (z-score of summed log2 fold changes over temperatures); higher = more thermally stable than in G1/S
[5] = cell cycle stage: early G1 (4.5 h after nocodazole release)
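Throughout, for melting temperature (median over replicates), in situ: HeLa Kyoto cells synchronized by double thymidine or nocodazole block, proteins quantified by TMT10plex mass spectrometry, three independent biological replicates.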
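Throughout, for solubility change mitosis vs G1/S (difference of NP-40 vs SDS log2 ratios): synchronized HeLa Kyoto cells (double thymidine block for G1/S, nocodazole release for mitosis), protein amounts in NP-40 versus SDS lysates quantified by mass spectrometry, three biological replicates.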
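Throughout, for solubility in G1/S (NP-40 vs SDS abundance): HeLa Kyoto cells arrested at G1/S by double thymidine block, proteins quantified by TMT10plex mass spectrometry in mild NP-40 versus SDS extracts, three biological replicates.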
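Throughout, for thermal stability score vs G1/S (z-score of summed log2 fold changes over temperatures): synchronized HeLa Kyoto cells, proteins quantified by TMT10plex mass spectrometry, three biological replicates, mitosis taken 0.5 h after nocodazole release, G1/S directly after double thymidine block.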

Sequence	solubility in G1/S (log2) (HeLa Kyoto [1])	melting temperature (HeLa Kyoto [2]; cell cycle stage: G1/S) [°C]	melting temperature (HeLa Kyoto [2]; cell cycle stage: mitosis) [°C]	solubility change mitosis (log2) (HeLa Kyoto [3])	thermal stability score (HeLa Kyoto [4]; [5])	thermal stability score (HeLa Kyoto [4]; cell cycle stage: mitosis)
MAAARATTPADGEEPAPEAEALAAARERSSRFLSGLELVKQGAEARVFRGRFQGRAAVIKHRFPKGYRHPALEARLGRRRTVQEARALLRCRRAGISAPVVFFVDYASNCLYMEEIEGSVTVRDYIQSTMETEKTPQGLSNLAKTIGQVLARMHDEDLIHGDLTTSNMLLKPPLEQLNIVLIDFGLSFISALPEDKGVDLYVLEKAFLSTHPNTETVFEAFLKSYSTSSKKARPVLKKLDEVRLRGRKRSMVG [TP53RK]	0.367	55.1	53	-0.151	0.0261	-0.818
MAGAIASRMSFSSLKRKQPKTFTVRIVTMDAEMEFNCEMKWKGKDLFDLVCRTLGLRETWFFGLQYTIKDTVAWLKMDKKVLDHDVSKEEPVTFHFLAKFYPENAEEELVQEITQHLFFLQVKKQILDEKIYCPPEASVLLASYAVQAKYGDYDPSVHKRGFLAQEELLPKRVINLYQMTPEMWEERITAWYAEHRGRARDEAEMEYLKIAQDLEMYGVNYFAIRNKKGTELLLGVDALGLHIYDPENRLTPKISFPWNEIRNISYSDKEFTIKPLDKKIDVFKFNSSKLRVNKLILQLCIGNHDLFMRRRKADSLEVQQMKAQAREEKARKQMERQRLAREKQMREEAERTRDELERRLLQMKEEATMANEALMRSEETADLLAEKAQITEEEAKLLAQKAAEAEQEMQRIKATAIRTEEEKRLMEQKVLEAEVLALKMAEESERRAKEADQLKQDLQEAREAERRAKQKLLEIATKPTYPPMNPIPAPLPPDIPSFNLIGDSLSFDFKDTDMKRLSMEIEKEKVEYMEKSKHLQEQLNELKTEIEALKLKERETALDILHNENSDRGGSSKHNTIKKLTLQSAKSRVAFFEEL [NF2]	-0.161	51.6	50.7	-0.0393	0.0456	0.294
MALAARLLPQFLHSRSLPCGAVRLRTPAVAEVRLPSATLCYFCRCRLGLGAALFPRSARALAASALPAQGSRWPVLSSPGLPAAFASFPACPQRSYSTEEKPQQHQKTKMIVLGFSNPINWVRTRIKAFLIWAYFDKEFSITEFSEGAKQAFAHVSKLLSQCKFDLLEELVAKEVLHALKEKVTSLPDNHKNALAANIDEIVFTSTGDISIYYDEKGRKFVNILMCFWYLTSANIPSETLRGASVFQVKLGNQNVETKQLLSASYEFQREFTQGVKPDWTIARIEHSKLLE [C2ORF47]	-0.257	53.7	53.3	-0.117	0.0315	0.76
MTGSNSHITILTLKVLPHFESLGKQEKIPNKMSAFRNHCPHLDSVGEITKEDLIQKSLGTCQDCKVQGPNLWACLENRCSYVGCGESQVDHSTIHSQETKHYLTVNLTTLRVWCYACSKEVFLDRKLGTQPSLPHVRQPHQIQENSVQDFKIPSNTTLKTPLVAVFDDLDIEADEEDELRARGLTGLKNIGNTCYMNAALQALSNCPPLTQFFLDCGGLARTDKKPAICKSYLKLMTELWHKSRPGSVVPTTLFQGIKTVNPTFRGYSQQDAQEFLRCLMDLLHEELKEQVMEVEEDPQTITTEETMEEDKSQSDVDFQSCESCSNSDRAENENGSRCFSEDNNETTMLIQDDENNSEMSKDWQKEKMCNKINKVNSEGEFDKDRDSISETVDLNNQETVKVQIHSRASEYITDVHSNDLSTPQILPSNEGVNPRLSASPPKSGNLWPGLAPPHKKAQSASPKRKKQHKKYRSVISDIFDGTIISSVQCLTCDRVSVTLETFQDLSLPIPGKEDLAKLHSSSHPTSIVKAGSCGEAYAPQGWIAFFMEYVKRFVVSCVPSWFWGPVVTLQDCLAAFFARDELKGDNMYSCEKCKKLRNGVKFCKVQNFPEILCIHLKRFRHELMFSTKISTHVSFPLEGLDLQPFLAKDSPAQIVTYDLLSVICHHGTASSGHYIAYCRNNLNNLWYEFDDQSVTEVSESTVQNAEAYVLFYRKSSEEAQKERRRISNLLNIMEPSLLQFYISRQWLNKFKTFAEPGPISNNDFLCIHGGVPPRKAGYIEDLVLMLPQNIWDNLYSRYGGGPAVNHLYICHTCQIEAEKIEKRRKTELEIFIRLNRAFQKEDSPATFYCISMQWFREWESFVKGKDGDPPGPIDNTKIAVTKCGNVMLRQGADSGQISEETWNFLQSIYGGGPEVILRPPVVHVDPDILQAEEKIEVETRSL [USP33]	-0.427	51.5	51	-0.00182	1.09	2.47
MNKHQKPVLTGQRFKTRKRDEKEKFEPTVFRDTLVQGLNEAGDDLEAVAKFLDSTGSRLDYRRYADTLFDILVAGSMLAPGGTRIDDGDKTKMTNHCVFSANEDHETIRNYAQVFNKLIRRYKYLEKAFEDEMKKLLLFLKAFSETEQTKLAMLSGILLGNGTLPATILTSLFTDSLVKEGIAASFAVKLFKAWMAEKDANSVTSSLRKANLDKRLLELFPVNRQSVDHFAKYFTDAGLKELSDFLRVQQSLGTRKELQKELQERLSQECPIKEVVLYVKEEMKRNDLPETAVIGLLWTCIMNAVEWNKKEELVAEQALKHLKQYAPLLAVFSSQGQSELILLQKVQEYCYDNIHFMKAFQKIVVLFYKADVLSEEAILKWYKEAHVAKGKSVFLDQMKKFVEWLQNAEEESESEGEEN [BZW2]	0.446	51.3	50.1	-0.11	2.74	3.19
